This assay has as its target Langya virus fusion protein (LayV-F) ectodomain, uncleaved (Langya virus). Description: cryo-EM structure.

Data on one substance can be found in article doi:10.1101/2023.04.11.536446.

“Langya virus fusion protein (LayV-F) ectodomain, uncleaved (domain or fragment)”: the stoichiometry N is 3.

What is called stoichiometry N is the number of molecules, sites or subunits per partner or assembly.
